Results on eight molecules are retold here after patent US20250171534A1 (D2M BIOTHERAPEUTICS, published 2025).

Experiment [1] concerns the target T1, LILRB2-ECD-HIS (SinoBiological Cat #: 14132-H02H) (human, UniProt Q8N423 22-460).
T1 construct: Bought protein; also called monomeric antigen LILRB2-ECD-HIS; not shown: His tag
Description: SPR (Carterra LSA), antibody captured, antigen injected.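 Further: kd obtained from kinetic analysis of antibody binding to the antigen, with association and dissociation phases fitted in the instrument software.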

Experiment [2] deals with T2, LILRB1-ECD-HIS (SinoBiological Cat #: 16014-H02H) (human, UniProt Q8NHL6 24-461).
T2 construct: Bought protein; also called monomeric antigen LILRB1-ECD-HIS; not shown: His tag
T2 sequence (Q8NHL6 other isoform, or with tags, fused parts or gaps H02H H02H): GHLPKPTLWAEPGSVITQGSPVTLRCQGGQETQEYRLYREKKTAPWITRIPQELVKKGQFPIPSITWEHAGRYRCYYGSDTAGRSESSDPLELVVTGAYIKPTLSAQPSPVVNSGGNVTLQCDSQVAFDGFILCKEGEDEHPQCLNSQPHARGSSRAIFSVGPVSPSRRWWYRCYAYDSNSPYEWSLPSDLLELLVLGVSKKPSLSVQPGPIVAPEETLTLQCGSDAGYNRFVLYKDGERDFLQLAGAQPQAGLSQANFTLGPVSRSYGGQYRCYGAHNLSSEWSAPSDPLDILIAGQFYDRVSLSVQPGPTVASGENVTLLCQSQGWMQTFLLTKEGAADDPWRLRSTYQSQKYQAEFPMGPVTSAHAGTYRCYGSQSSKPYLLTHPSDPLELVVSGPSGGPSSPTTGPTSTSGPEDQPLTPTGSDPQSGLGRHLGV
Described as above.

T1 sequence (Q8N423 other isoform, or with tags, fused parts or gaps H02H H02H): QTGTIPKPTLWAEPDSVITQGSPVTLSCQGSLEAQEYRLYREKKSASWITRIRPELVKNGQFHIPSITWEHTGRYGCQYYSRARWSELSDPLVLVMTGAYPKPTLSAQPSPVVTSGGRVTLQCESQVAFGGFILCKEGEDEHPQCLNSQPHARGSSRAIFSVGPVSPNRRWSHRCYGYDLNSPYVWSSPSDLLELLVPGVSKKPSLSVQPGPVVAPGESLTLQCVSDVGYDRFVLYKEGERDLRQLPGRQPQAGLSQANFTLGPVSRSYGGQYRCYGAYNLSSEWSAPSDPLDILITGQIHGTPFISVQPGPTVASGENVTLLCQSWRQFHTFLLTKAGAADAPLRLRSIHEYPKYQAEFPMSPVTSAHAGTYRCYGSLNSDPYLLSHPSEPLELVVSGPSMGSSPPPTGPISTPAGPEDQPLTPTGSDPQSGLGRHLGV

B1: #12 (antibody, human IgG1, V domains shown)
VH: QIQLLQSGAELMKPGASVKISCKATGYTFSNYWIEWVKQRPGHGLEWIGEILPGSGSTNYNEKFKGKATFTADTSSNTAYMQLSSLTSEDSAVYYCARSGAGGYDSGAFAYWGQGTLVTVSS
VL: DIVLTQSPASLAVSLGQRATISCRASESVDSYGNSFMHWYQQKPGQPPKLLIYRTSNLESGIPARFSGSGSRTDFTLTINPVEADDVAAYYCQQSNEDPWTFGGGTKLEIK
notes: also called D2M002-012
As for B1, the Kd in experiment [1] came to 0.2 nM; in experiment [2] it was 1.6 nM.

B2: #20 (antibody, human IgG1, V domains shown)
VH: QVQFQQSGVELMKPGASVKISCKATGNTFSNYWIEWVKQRPGHDLEWIGEILPGSGSTNYNEKFKGKATFTADTSSNTAYMQLNSLTSEDSAVYYCARSGAGGYDSGAFAYWGQGTLVTVSA
VL: DIVMTQSPASLAVSLGQRATISCRASESVDSYGNSFMHWYQQKPGQPPKLLIYRTSNLESGIPARFSGSGSRTDFTLTINPVEADDVATYYCQQSNEDPWTFGGGTKLEIK
notes: also called D2M002-020
As to B2, the figures for the Kd in experiment [1] and in experiment [2] were 0.2 nM and 1.19 nM, respectively.

B3: #35 (antibody, human IgG1, V domains shown)
VH: QVQLQQSGAELMKPGASVRISCKATGYTFSSSWIEWVKQRPGHGLEWIGEILPGSGSTNYNEKFKGKATFTADTSSNTAYMQLSSLTSEDSAVYYCARSGAGGYDSGAFTYWGQGTLVTVSA
VL: DIVLTQSPASLAVSLGQRATISCRASESIDTYGNSFMHWYQQKPGQPPKLLIYRASNLESGIPARFSGSGSRTDFTLTINPVEADDVATYYCQQSNEDPWTFGGGTKLEIK
notes: also called D2M002-035
Consider B3, for which the Kd in experiment [1] was 0.617 nM; in experiment [2] it was 10.4 nM.

B4: #17 (antibody, human IgG1, V domains shown)
VH: EVQLQQSGAELMKPGASVKISCKTTGNTFSSYWIEWVKQRPGHDLEWIGEILPGSGSSNYNEKFKGKATFTADTSSNTAYMQLNSLTSEDSAVYYCARSGAGGYDSGAFAYWGQGTLVTVSA
VL: DIVLTQSPASLAVSLGQRATISCRASESVDSYGNSFMHWYQQKPGQPPKLLIYRTSNLESGIPSRFSGSGSRTDFTLTINPVEADDVATYYCQQSNEDPWTFGGGTKLEIK
notes: also called D2M002-017
Regarding B4, the Kd in experiment [1] is 0.0476 nM; in experiment [2], 1.18 nM.

B5: #31 (antibody, human IgG1, V domains shown)
VH: QVQMQPFGAELMKPGASVRISCKATGYTFSSSWIEWVKQRPGHGLEWIGEILPGSGTTNYNEKFKGKATFTADTSSNTAYMQLSSLTSEDSAVYYCARSGAGGYDSGAFTYWGQGTLVTVSA
VL: DIVLTQSPASLAVSLGQRATISCRASESIDTYGNSFMHWYQQKPGQPPKLLIYRASNLESGIPARFSGSGSRTDFTLTINPVEADDVATYYCQQSNEDPWTFGGGTKLEIK
notes: also called D2M002-031
As to B5, the values for the Kd in experiment [1] and in experiment [2] were 1.26 nM and 20 nM, respectively.

B6: #29 (antibody, human IgG1, V domains shown)
VH: EVQLQQSGAEVKKPGASVKISCKATGYTFSSYWIEWVKQRPGHGLEWIGEILPGSGSTNYNEKFKGKATFTADTSSNTAYMQLSSLTSEDFTVYYCARSGAGGYDSGAFGYWGQGTLVTVSS
VL: DIVMTQSPASLAVSLGQRATISCRASESIDTYGNSFMHWYQQKPGQPPKLLIYRASNLESGIPARFSGSGSRTDFTLTINPVEADDVATYYCQQSNEDPWTFGGGTKLEIK
notes: also called D2M002-029
As for B6, the figures for the Kd in experiment [1] and in experiment [2] were 1.59 nM and 28.7 nM, respectively.

B7: #23 (antibody, human IgG1, V domains shown)
VH: QVQMQQPGAELMKPGASVKISCKATGYTFSRYWIEWVKQRPGHGLEWIGEILPGDGSTNYNAKFKGQATFTADTSSNTAYMQFSSLTYEDSAVYYCARSGAGGYDSGAFAYWGQGTLVTVSS
VL: DIVLTQSPASLAVSLGQRATISCRASESVDTYGNSFMHWYQQKPGQPPKLLIYRTSNLESGIPARFSGSGSRTDFTLTINPVEADDVATYYCQQSNEDPWTFGGGTKLEIK
notes: also called D2M002-023
Regarding B7, the Kd in experiment [1] was found to be 0.636 nM; in experiment [2] it was 7.65 nM.

B8: #18 (antibody, human IgG1, V domains shown)
VH: EVQLQQSGAELMKPGASVKISCKTTGNTFSSYWIEWVKQRPGHDLEWIGEILPGSGSTNYNEKFKGKATFTADTSSNTAYMQLNSLTSEDSAVYYCARSGAGGYDSGAFAYWGQGTLVTVSA
VL: DIVLTQSPASLAVSLGQRATISCRASESVDSYGNSFMHWYQQKPGQPPKLLIYRTSNLESGIPARFSGSGSRTDFTLTINPVEADDVATYYCQQSNEDPWTFGGGTKLEIK
notes: also called D2M002-018
On to B8, for which the Kd in experiment [1] was 0.0526 nM; in experiment [2], 1.36 nM.
